According to PMC3230590, “Structure of the Bro1 Domain Protein BROX and Functional Analyses of the ALIX Bro1 Domain in HIV-1 Budding” (PLoS ONE, 2011):

T1: human BROX(1-401) (human, UniProt Q5VW32 1-401)
T1 construct: BROX, human, residues 1-401; lacks the 10 C-terminal residues 402-411 with the farnesylated Cys408; Residues of the vector may remain after TEV cleavage (surmise); also called wild type BROX; recombinant human BROX; not shown: His6, N-terminal, cleaved
T1 sequence (looked up): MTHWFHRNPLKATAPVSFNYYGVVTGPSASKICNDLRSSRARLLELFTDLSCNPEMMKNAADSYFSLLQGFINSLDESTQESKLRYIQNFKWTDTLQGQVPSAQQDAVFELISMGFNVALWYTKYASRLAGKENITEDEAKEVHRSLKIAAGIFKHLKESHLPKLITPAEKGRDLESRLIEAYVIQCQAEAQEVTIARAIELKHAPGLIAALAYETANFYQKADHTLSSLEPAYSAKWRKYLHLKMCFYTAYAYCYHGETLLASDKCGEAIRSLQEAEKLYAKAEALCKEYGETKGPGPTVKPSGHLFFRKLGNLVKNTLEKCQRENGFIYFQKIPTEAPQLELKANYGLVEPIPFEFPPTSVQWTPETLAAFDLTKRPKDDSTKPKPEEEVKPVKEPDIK

B1: GST-CHMP4B(205-224) (domain or fragment, UniProt Q9H444 205-224, looked up)
chain: KKKEEEDDDMKELENWAGSM
notes: also called C-terminal fragment from CHMP4B; source: E. coli, captured from crude expression lysates on an anti-GST antibody sensor chip

How the values were obtained:
[1] = target: CHMP4B 205-224 (Homo sapiens) (UniProt Q9H444); conditions: cited from earlier work
human BROX(1-401) = target: T1, human BROX(1-401); test: SPR; Biacore 2000; CM5 chip with amine-coupled anti-GST antibody capturing GST-CHMP4B(205-224) or GST alone from crude E. coli lysates; pure BROX proteins injected in triplicate, 1.5-fold dilution series from 400 µM; equilibrium responses fit to 1:1 isotherms; conditions: both partners purified

Molecule | Kd [1] | Kd (human BROX(1-401))
ALIX Bro1 (from UniProt Q8WUM4) | 48 µM | 
B1 |  | 98 ± 22 µM
